Among the data in article PMC9599836, “Comparative Analysis of Mesophilic YqfB-Type Amidohydrolases” (Biomolecules, 2022) are Km, kcat and kcat/Km values, retold here.

Holding throughout (assay): purified protein
Details in all cases: 20 mM Tris-HCl, pH 7.5, 22 °C, 0.025-0.2 mM ac4C

Substrate in data set [1]: CC(=O)Nc1ccn([C@@H]2O[C@H](CO)[C@@H](O)[C@H]2O)c(=O)n1
Substrate in data set [2]: CC(=O)Nc1ccn([C@@H]2O[C@H](CO)[C@@H](O)[C@H]2O)c(=O)n1
In kind it is biochemical, Shewanella loihica.

Substrate in data set [3]: CC(=O)Nc1ccn([C@@H]2O[C@H](CO)[C@@H](O)[C@H]2O)c(=O)n1
In kind it is biochemical, Buttiauxella agrestis.

B1: KpnYqfB (Klebsiella pneumoniae subsp. pneumoniae MGH 78578) (protein)
chain: MQANDITFFQRFQDDILAGRKTITIRDAAESHFKPGDVLRVGRYEDDGYFCTIAVTATSTVTLDTLTEQHAQQENMTLGQLRQVISDIYPGESQFYVIEFKTL
With B1, in the data set “purified protein [1]”, the Km entry is “(4.6 ± 0.8) × 10^-5 M”; the kcat (usually the number of substrate molecules converted per active site and unit of time at saturation) was 216 ± 2 s⁻¹; the kcat/Km – broadly, the turnover number divided by the Michaelis constant – was determined as 4.8e+06 ± 800000 M⁻¹ s⁻¹.

B2: SloYqfB (Shewanella loihica PV-4) (protein)
chain: MTPLTYDGKITFFERFEADILSGAKTITLRDESESHFRVGDRLSVSTFETGRHFCDIQVVRVEELAFEALNSRHAVQENMTLEQLKAVITEIYGEIDTLYLIEYRLL
notes: pLATE31 expression vector, E. coli HMS174 ΔpyrF ΔyqfB host
Take B2: in “purified protein [2]”, the Km entry is “(1 ± 0.2) × 10^-4 M”, the kcat came out at 441 ± 37 s⁻¹ and the kcat/Km was determined as 4.3e+06 ± 500000 M⁻¹ s⁻¹.

B3: BagYqfB (Buttiauxella agrestis ATCC 33320) (protein)
chain: MNDITFFQRFESDIVAGRKTITLRDVSESHFIPGQQLRVGRYEDDVYFCTIEVVSVTPVALEKLTDEHARQENMTLPELKEVIGEIYPGLTELYAIVFRLLTKSDKRVL
notes: 109 a.a; pLATE31 expression vector, E. coli HMS174 ΔpyrF ΔyqfB host
Take B3: in “purified protein [3]”, the Km entry is recorded as “(3.6 ± 0.8) × 10^-5 M”, the kcat came out at 154 ± 11 s⁻¹ and the kcat/Km was 4.3e+06 ± 700000 M⁻¹ s⁻¹.
